Like-named read-outs stand apart in the source and are kept apart here.
Assay: In vivo pharmacokinetic (PK) studies in rats
Set-up: species or system Sprague-Dawley rats
Details: for AUC(0-inf): read-out: Rat PK AUC Total; for level at time molar at 24 h: read-out: Rat PK C24
Procedure: […] Blood samples were collected via jugular vein at different time points out to 72 hours. Blood samples were allowed to coagulate at room temperature (30-60 m) and then centrifuged (1500-2000) at 4° C. to obtain serum. After centrifugation serum samples were transferred to 96 well plates and stored at −80° C. until bioanalysis. Relaxin concentrations were measured from serum by ELISA.
Relaxin concentration-time profiles from individual animals were used for analysis. Pharmacokinetic parameters were calculated by non-compartmental methods using Phoenix WinNonlin (version 6.4) or Kinetica (version 5). Mean pharmacokinetic parameters Cmax, AUCinf, C24 and half-life were reported (Table 4). Table 4. In vivo PK data (abbreviations as in Table 3).

[1] = rat, male Sprague-Dawley rats, single SC dose 1.0 mg/kg, serum ELISA
[2] = rats, SC dose 1.0 mg/kg, adjusted from 0.3 mpk

CC[C@H](C)[C@@H]1NC(=O)[C@H](C)NC(=O)[C@H]([C@@H](C)CC)NC(=O)[C@H](CCC(N)=O)NC(=O)[C@H](C)NC(=O)[C@H](CCCNC(=N)N)NC(=O)[C@H](C(C)C)NC(=O)[C@H](CC(C)C)NC(=O)[C@H](CCC(=O)O)NC(=O)[C@H](CCCNC(=N)N)NC(=O)CNC(=O)[C@@H](NC(=O)[C@H](CC(C)C)NC(=O)[C@H](CCCCN)NC(=O)[C@@H](NC(=O)[C@@H](NC(=O)[C@H](CCC(=O)O)NC(=O)[C@H](CCC(=O)O)NC(=O)[C@H](CCSC)NC(=O)[C@H](Cc2c[nH]c3ccccc23)NC(=O)[C@H](CO)NC(=O)[C@H](C)N)C(C)C)[C@@H](C)CC)CSSC[C@@H]2NC(=O)[C@@H](NC(=O)[C@H](CCCCN)NC(=O)[C@H](CC(N)=O)NC(=O)[C@H](C)NC(=O)[C@H](CC(C)C)NC(=O)[C@H](C)NC(=O)[C@H](CO)NC(=O)[C@H](Cc3ccc(O)cc3)NC(=O)[C@H](CC(C)C)NC(=O)[C@@H](N)Cc3ccc(C(C)=NOCCNC(=O)CNC(=O)CNC(=O)CNC(=O)[C@H](CCC(=O)O)NC(=O)[C@H](CCC(=O)O)NC(=O)[C@H](CCC(=O)O)NC(=O)CC[C@H](NC(=O)CCCCCCCCCCCCC(=O)O)C(=O)O)cc3)CSSC[C@H](NC(=O)CNC(=O)[C@H](C(C)C)NC(=O)[C@H](Cc3c[nH]cn3)NC2=O)C(=O)N[C@@H]([C@@H](C)O)C(=O)N[C@@H](CCCCN)C(=O)N[C@@H](CCCNC(=N)N)C(=O)N[C@@H](CO)C(=O)N[C@@H](CC(C)C)C(=O)N[C@@H](C)C(=O)N[C@@H](CCCNC(=N)N)C(=O)N[C@@H](Cc2ccccc2)C(=O)N[C@H](C(=O)O)CSSC[C@@H](C(=O)NCC(=O)N[C@@H](CCSC)C(=O)N[C@@H](CO)C(=O)N[C@H](C(=O)N[C@@H](Cc2c[nH]c3ccccc23)C(=O)N[C@@H](CO)C(=O)O)[C@@H](C)O)NC1=O [AQ1-GGGEEE-Glu^γ-C13-COOH]
AUC(0-inf) [1]: 0.866 µM·h | level at time molar at 24 h [1]: 0.18 nM

CC[C@H](C)[C@@H]1NC(=O)[C@H](C)NC(=O)[C@H]([C@@H](C)CC)NC(=O)[C@H](CCC(N)=O)NC(=O)[C@H](C)NC(=O)[C@H](CCCNC(=N)N)NC(=O)[C@H](C(C)C)NC(=O)[C@H](CC(C)C)NC(=O)[C@H](CCC(=O)O)NC(=O)[C@H](CCCNC(=N)N)NC(=O)CNC(=O)[C@@H](NC(=O)[C@H](CC(C)C)NC(=O)[C@H](CCCCN)NC(=O)[C@@H](NC(=O)[C@@H](NC(=O)[C@H](CCC(=O)O)NC(=O)[C@H](CCC(=O)O)NC(=O)[C@H](CCSC)NC(=O)[C@H](Cc2c[nH]c3ccccc23)NC(=O)[C@H](CO)NC(=O)[C@H](C)N)C(C)C)[C@@H](C)CC)CSSC[C@@H]2NC(=O)[C@@H](NC(=O)[C@H](CCCCN)NC(=O)[C@H](CC(N)=O)NC(=O)[C@H](C)NC(=O)[C@H](CC(C)C)NC(=O)[C@H](C)NC(=O)[C@H](CO)NC(=O)[C@H](Cc3ccc(O)cc3)NC(=O)[C@H](CC(C)C)NC(=O)[C@@H](N)Cc3ccc(C(C)=NOCCNC(=O)CNC(=O)CNC(=O)CNC(=O)CNC(=O)[C@H](CO)NC(=O)CC[C@H](NC(=O)CCCCCCCCCCCCCCC(=O)O)C(=O)O)cc3)CSSC[C@H](NC(=O)CNC(=O)[C@H](C(C)C)NC(=O)[C@H](Cc3c[nH]cn3)NC2=O)C(=O)N[C@@H]([C@@H](C)O)C(=O)N[C@@H](CCCCN)C(=O)N[C@@H](CCCNC(=N)N)C(=O)N[C@@H](CO)C(=O)N[C@@H](CC(C)C)C(=O)N[C@@H](C)C(=O)N[C@@H](CCCNC(=N)N)C(=O)N[C@@H](Cc2ccccc2)C(=O)N[C@H](C(=O)O)CSSC[C@@H](C(=O)NCC(=O)N[C@@H](CCSC)C(=O)N[C@@H](CO)C(=O)N[C@H](C(=O)N[C@@H](Cc2c[nH]c3ccccc23)C(=O)N[C@@H](CO)C(=O)O)[C@@H](C)O)NC1=O [AQ1-GGGGS-Glu^γ-C15-COOH]
Rat PK AUC Total [2]: 5.526 µM·h | level at time molar at 24 h [2]: 44 nM

CC[C@H](C)[C@@H]1NC(=O)[C@H](C)NC(=O)[C@H]([C@@H](C)CC)NC(=O)[C@H](CCC(N)=O)NC(=O)[C@H](C)NC(=O)[C@H](CCCNC(=N)N)NC(=O)[C@H](C(C)C)NC(=O)[C@H](CC(C)C)NC(=O)[C@H](CCC(=O)O)NC(=O)[C@H](CCCNC(=N)N)NC(=O)CNC(=O)[C@@H](NC(=O)[C@H](CC(C)C)NC(=O)[C@H](CCCCN)NC(=O)[C@@H](NC(=O)[C@@H](NC(=O)[C@H](CCC(=O)O)NC(=O)[C@H](CCC(=O)O)NC(=O)[C@H](CCSC)NC(=O)[C@H](Cc2c[nH]c3ccccc23)NC(=O)[C@H](CO)NC(=O)[C@H](C)N)C(C)C)[C@@H](C)CC)CSSC[C@@H]2NC(=O)[C@@H](NC(=O)[C@H](CCCCN)NC(=O)[C@H](CC(N)=O)NC(=O)[C@H](C)NC(=O)[C@H](CC(C)C)NC(=O)[C@H](C)NC(=O)[C@H](CO)NC(=O)[C@H](Cc3ccc(O)cc3)NC(=O)[C@H](CC(C)C)NC(=O)[C@@H](N)Cc3ccc(C(C)=NOCCNC(=O)CNC(=O)CNC(=O)CNC(=O)[C@H](CCCCN)NC(=O)[C@H](CCCCN)NC(=O)[C@H](CCCCN)NC(=O)CC[C@H](NC(=O)CCCCCCCCCCCCC(=O)O)C(=O)O)cc3)CSSC[C@H](NC(=O)CNC(=O)[C@H](C(C)C)NC(=O)[C@H](Cc3c[nH]cn3)NC2=O)C(=O)N[C@@H]([C@@H](C)O)C(=O)N[C@@H](CCCCN)C(=O)N[C@@H](CCCNC(=N)N)C(=O)N[C@@H](CO)C(=O)N[C@@H](CC(C)C)C(=O)N[C@@H](C)C(=O)N[C@@H](CCCNC(=N)N)C(=O)N[C@@H](Cc2ccccc2)C(=O)N[C@H](C(=O)O)CSSC[C@@H](C(=O)NCC(=O)N[C@@H](CCSC)C(=O)N[C@@H](CO)C(=O)N[C@H](C(=O)N[C@@H](Cc2c[nH]c3ccccc23)C(=O)N[C@@H](CO)C(=O)O)[C@@H](C)O)NC1=O [AQ1-GGGKKK-Glu^γ-C13-COOH]
AUC(0-inf) [1]: 0.231 µM·h | level at time molar at 24 h [1]: 0.1 nM

CC[C@H](C)[C@@H]1NC(=O)[C@H](C)NC(=O)[C@H]([C@@H](C)CC)NC(=O)[C@H](CCC(N)=O)NC(=O)[C@H](C)NC(=O)[C@H](CCCNC(=N)N)NC(=O)[C@H](C(C)C)NC(=O)[C@H](CC(C)C)NC(=O)[C@H](CCC(=O)O)NC(=O)[C@H](CCCNC(=N)N)NC(=O)CNC(=O)[C@@H](NC(=O)[C@H](CC(C)C)NC(=O)[C@H](CCCCN)NC(=O)[C@@H](NC(=O)[C@@H](NC(=O)[C@H](CCC(=O)O)NC(=O)[C@H](CCC(=O)O)NC(=O)[C@H](CCSC)NC(=O)[C@H](Cc2c[nH]c3ccccc23)NC(=O)[C@H](CO)NC(=O)[C@H](C)N)C(C)C)[C@@H](C)CC)CSSC[C@@H]2NC(=O)[C@@H](NC(=O)[C@H](CCCCN)NC(=O)[C@H](CC(N)=O)NC(=O)[C@H](C)NC(=O)[C@H](CC(C)C)NC(=O)[C@H](C)NC(=O)[C@H](CO)NC(=O)[C@H](Cc3ccc(O)cc3)NC(=O)[C@H](CC(C)C)NC(=O)[C@@H](N)Cc3ccc(C(C)=NOCCNC(=O)[C@H](CCCCN)NC(=O)[C@H](CCCCN)NC(=O)CC[C@H](NC(=O)CCCCCCCCCCCCCCC(=O)O)C(=O)O)cc3)CSSC[C@H](NC(=O)CNC(=O)[C@H](C(C)C)NC(=O)[C@H](Cc3c[nH]cn3)NC2=O)C(=O)N[C@@H]([C@@H](C)O)C(=O)N[C@@H](CCCCN)C(=O)N[C@@H](CCCNC(=N)N)C(=O)N[C@@H](CO)C(=O)N[C@@H](CC(C)C)C(=O)N[C@@H](C)C(=O)N[C@@H](CCCNC(=N)N)C(=O)N[C@@H](Cc2ccccc2)C(=O)N[C@H](C(=O)O)CSSC[C@@H](C(=O)NCC(=O)N[C@@H](CCSC)C(=O)N[C@@H](CO)C(=O)N[C@H](C(=O)N[C@@H](Cc2c[nH]c3ccccc23)C(=O)N[C@@H](CO)C(=O)O)[C@@H](C)O)NC1=O [AQ1-KK-Glu^γ-C15-COOH]
AUC(0-inf) [1]: 0.82 µM·h | level at time molar at 24 h [1]: 8.8 nM

CC[C@H](C)[C@@H]1NC(=O)[C@H](C)NC(=O)[C@H]([C@@H](C)CC)NC(=O)[C@H](CCC(N)=O)NC(=O)[C@H](C)NC(=O)[C@H](CCCNC(=N)N)NC(=O)[C@H](C(C)C)NC(=O)[C@H](CC(C)C)NC(=O)[C@H](CCC(=O)O)NC(=O)[C@H](CCCNC(=N)N)NC(=O)CNC(=O)[C@@H](NC(=O)[C@H](CC(C)C)NC(=O)[C@H](CCCCN)NC(=O)[C@@H](NC(=O)[C@@H](NC(=O)[C@H](CCC(=O)O)NC(=O)[C@H](CCC(=O)O)NC(=O)[C@H](CCSC)NC(=O)[C@H](Cc2c[nH]c3ccccc23)NC(=O)[C@H](CO)NC(=O)[C@H](C)N)C(C)C)[C@@H](C)CC)CSSC[C@@H]2NC(=O)[C@@H](NC(=O)[C@H](CCCCN)NC(=O)[C@H](CC(N)=O)NC(=O)[C@H](C)NC(=O)[C@H](CC(C)C)NC(=O)[C@H](C)NC(=O)[C@H](CO)NC(=O)[C@H](Cc3ccc(O)cc3)NC(=O)[C@H](CC(C)C)NC(=O)[C@@H](N)Cc3ccc(C(C)=NOCCNC(=O)[C@H](CCCCN)NC(=O)[C@H](CCCCN)NC(=O)[C@H](CCCCN)NC(=O)[C@H](CCCCN)NC(=O)[C@H](CCCCN)NC(=O)[C@H](CCCCN)NC(=O)CC[C@H](NC(=O)CCCCCCCCCCCCC(=O)O)C(=O)O)cc3)CSSC[C@H](NC(=O)CNC(=O)[C@H](C(C)C)NC(=O)[C@H](Cc3c[nH]cn3)NC2=O)C(=O)N[C@@H]([C@@H](C)O)C(=O)N[C@@H](CCCCN)C(=O)N[C@@H](CCCNC(=N)N)C(=O)N[C@@H](CO)C(=O)N[C@@H](CC(C)C)C(=O)N[C@@H](C)C(=O)N[C@@H](CCCNC(=N)N)C(=O)N[C@@H](Cc2ccccc2)C(=O)N[C@H](C(=O)O)CSSC[C@@H](C(=O)NCC(=O)N[C@@H](CCSC)C(=O)N[C@@H](CO)C(=O)N[C@H](C(=O)N[C@@H](Cc2c[nH]c3ccccc23)C(=O)N[C@@H](CO)C(=O)O)[C@@H](C)O)NC1=O [AQ1-KKKKKK-Glu^γ-C13-COOH]
AUC(0-inf) [1]: 0.038 µM·h | level at time molar at 24 h [1]: 0.05 nM

— patent publication US12097241B2, “Methods of treating kidney failure, and/or improving or stablizing renal function using modified relaxin polypeptides” (BRISTOL-MYERS SQUIBB COMPANY, priority 2017, dated 2024)
